Paper PMC4303305 (Biochemistry, 2014)
Like-named read-outs stand apart in the source and are kept apart here.

Columns and labels:
SEC [1] = target: the molecule itself; assay: SEC
SEC [2] = target: the molecule itself; assay: SEC; remark: listed apart in the source

| Protein | stoichiometry N (SEC [1]) | stoichiometry N (SEC [2]) |
| --- | --- | --- |
| NP1(K1A) (natural protein, Rhodnius prolixus, UniProt Q26239 24-207, looked up) ACTKNALAQTGFNKDKYFNGDVWYVTDYLDLEPDDVPKRYCAALAAGTASGKLKEALYHYDPKTQDTFYDVSELQEESPGKYTANFKKVEKNGNVKVDVTSGNYYTFTVMYADDSSALIHTCLHKGNKDLGDLYAVLNRNKDTNAGDKVKGAVTAASLKFSDFISTKDNKCEYDNVSLKSLLTK | 2 | – |
| native N-terminal NP1 with C-terminal His6 tag (natural protein, Rhodnius prolixus, UniProt Q26239 24-207, looked up) KCTKNALAQTGFNKDKYFNGDVWYVTDYLDLEPDDVPKRYCAALAAGTASGKLKEALYHYDPKTQDTFYDVSELQEESPGKYTANFKKVEKNGNVKVDVTSGNYYTFTVMYADDSSALIHTCLHKGNKDLGDLYAVLNRNKDTNAGDKVKGAVTAASLKFSDFISTKDNKCEYDNVSLKSLLTK | 2 | – |
| NP4(K38Q/R39Q/K125Q) (natural protein, Rhodnius prolixus, UniProt Q94734 22-205, looked up) ACTKNAIAQTGFNKDKYFNGDVWYVTDYLDLEPDDVPQQYCAALAAGTASGKLKEALYHYDPKTQDTFYDVSELQVESLGKYTANFKKVDKNGNVKVAVTAGNYYTFTVMYADDSSALIHTCLHQGNKDLGDLYAVLNRNKDAAAGDKVKSAVSAATLEFSKFISTKENNCAYDNDSLKSLLTK | – | 2 |
